Source: patent US12624096B2, “Anti-tau antibodies and methods of use thereof” (GTInvent Limited, priority 2020, dated 2026)
“Also recorded” adds a separate entry of the source.

How the values were obtained:
[1] = Pharmacokinetic study of S1D12 mAb, single dose, plasma and brain (dGAE ligand binding ELISA); type: in vivo, mouse; conditions: single dose 30 mg/kg i.p., NMRI mice, plasma
Description: For the PK study, a total of 42 female NMRI mice (Swiss-type mouse, Naval Medical Research Institute) aged 6 months were allocated into six groups according to sample collection time (Table 30 for group size). Animals were injected intraperitoneally with S1D12 (30 mg/kg) and sacrificed 24-, 48-, 72-hours and 7-, 14- and 31-days after injection to collect blood and brain samples. A control group was also included in which animals were sacrificed to collect blood and brain, but no test item was administered.
Blood samples were centrifuged to obtain plasma at 2000×g for 5 min at 6° C., and samples were stored at −20° C. After blood collection, each mouse was perfused with heparinized saline for 2-3 minutes and the entire brain removed rapidly and snap frozen in liquid nitrogen and stored at −80° C.
Briefly, dGAE (1 μg/mL) was used to coat ELISA plates and blocked with 2% Marvel. […] Following washing, HRP-conjugated anti-mouse IgG as detector was added, and the assay developed using TMB solution as normal. The absorbance at 450 nm was read using a Clariostar plate reader (BMG Labtech) and MARS Clariostar software used to calculate S1D12 concentration from a standard curve.
Average values from each group (representing a time point) was plotted (FIG. 10) and the in vivo half-life, Cmax and Tmax calculated by performing a non-compartmental analysis of the plasma data using the PKSolver2.0 software (FIG. 51, Table 31). […] Here a higher coating concertation of dGAE at 10 μg/ml was used to compete off antibody binding to tau present in the brain.

plasma tau = assay: Plasma tau (Simoa) after S1D12 immunotherapy; type: in vivo, mouse; conditions: L66 mice
Description: In a six-week repeat-dose study, a total of 12 WT, 12 Line 1 (L1) and 12 Line 66 homozygotes (L66+/*) female mice aged 2-months at the beginning of the study were used (Table 32 for group size). Mice in each genotype were injected intraperitoneally (i.p.) with either vehicle or S1D12 (30 mg/kg), once per week, for six consecutive weeks.
Three-step assays were performed and analysed as per previously described plasma screening methods in this document.

dGAE = dGAE (Homo sapiens, UniProt P10636); assay: dGAE fibril assembly, Thioflavin S fluorescence; type: biochemical; conditions: 25 and 100 μM dGAE, ratios 4:1 or 1:1
Description: dGAE protein was diluted into 10 mM phosphate buffer, pH 7.4 (PB) with monoclonal antibody s1D12 at a ratio of 4:1 protein: Ab (100 μM dGAE+25 μM s1D12 and 10 μM dGAE+2.5 μM s1D12) or 1:1 (25 μM dGAE+25 μM s1D12).
As a positive control, dGAE was prepared at a final concentration of 10, 25 or 100 μM in 10 mM PB. Negative controls consisted of dGAE with a non-tau IgG antibody at a ratio of 4:1 (10 μM dGAE+2.5 μM anti-ovalbumin), or antibody alone (25 or 2.5 μM s1D12 and 2.5 μM anti-ovalbumin). Samples were agitated at 700 rpm at 37° C., for 3 days.
For CD, 60 μL sample was placed in a 0.1 mm quartz cuvette and placed into a JASCO spectropolarimeter. 100 μL ThS in 20 mM MOPS buffer was added to 50 μL of each sample to a final concentration of 20 μM, mixed well, incubated at room temperature for 10 minutes then fluorescence intensity measured in a Cary Eclipse spectrophotometer using an excitation wavelength of 440 nm. Baseline readings from 10 mM PB were subtracted from CD and ThS measurements.

dGAE aggregates = dGAE aggregates (Homo sapiens, UniProt P10636); assay: Sandwich ELISA on SDS/Triton X-100 treated dGAE aggregates; type: binding
Description: For aggregation, 1000 μL 100 μM dGAE+10 μL 10 mM DTT was added to a ‘LoBind’ microfuge tubes and agitated at 700 RPM/37° C., for 24 hours. Resulting sample centrifuged at 17,000×g/4° C., for 60 min and supernatant discarded to remove left over monomer. Pellet resuspended in half the original volume for future experiments and hereafter referred to as ‘aggregates’. 1 μl of aggregates was added to 1 ml of PBS and SDS was added to a final concentration of 1% (w/v). This was left to incubate on lab bench for 1 h with gentle agitation every 15 minutes. In order to neutralise the SDS effect on ELISA, Triton X-100 added to a final concentration of 3% (v/v) and mixed gently by pipetting to prevent any bubble formation. […] Similarly aggregates treated with only SDS or Triton X-100, untreated aggregates, dGAE monomers treated with only SDS or SDS+Titon X-100 were also added to designated wells as controls. All samples were then double diluted across the plate in final volumes of 100 μl. The final column was left with no protein to act as a blank. This was allowed to stand at room temperature for 1 hour followed by the addition of detection scAb-S1G2 at 10 μg/ml. Anti-HuCk HRP labelled secondary antibody was added as described previously and ELISA data generated was represented using the graph below. In addition, limits of detection (LoD) of various core binding antibody pairing for SDS Triton X-100 treated dGAE aggregates were calculated using the above describe ELISA method and substituting capture mAbs and detection scAbs as shown in Table 30.

[2] = test system: tau protein in brain homogenate; assay: Capture ELISA on transgenic mouse brain lysates; type: binding; conditions: S1D12 mAb capture; WT, L1, L66+/- and L66+/+
Description: Mouse brain lysates were prepared from wildtype, Line 1, Line 66+/+ and Line 66+/− (Melis et al., 2015, all surplus from Charles River, part of study R0144). All animals were female, 7-8 months old except Line 66+/+ which were 5 months old. […] The L1 cDNA construct (FIG. 23) contains human tau cDNA coding for amino acid residues 296-390 with a signal sequence and related sequences in a murine Thy-1 expression cassette. For brain lysate preparation, half brains were sectioned into four and the individual sections were homogenised in 400 μl of ice cold RIPA buffer (Cell signalling Technology) containing protease and phosphatase inhibitors. Total protein concentrations for individual samples were established by BCA-assay and each sample was subsequently diluted to 1 mg/ml for future experiments.
For capture ELISA, 100 µL S1D12 capture mAb was used to coat a nunc 96 well Maxisorp plate at 1 μg/ml and incubated for 1 hour at 37° C. Plate was washed as previously and then blocked for 1 hour at 37° C., in 2% MPBS. Brain homogenate samples (50 ng total protein) from each mouse type were added to the first wells and double diluted across the plate in PBS. These samples were left to incubate at RT for 1 hour. Various detection scAbs encompassing epitopes of interest were then added to the plate at 1 μg/ml and incubated for 1 h at RT. […]

dGAE, sequence (P10636 614-708): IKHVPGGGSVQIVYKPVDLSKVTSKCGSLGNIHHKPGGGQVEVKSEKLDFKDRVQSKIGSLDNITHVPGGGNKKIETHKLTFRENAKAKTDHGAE
dGAE aggregates, sequence (P10636 614-708): as above

B1: S1D12: anti-tau clone from immunised sheep, SEQ ID NO: 32 (protein)
scFv: QVQLQESGPSLVKPSQTLSLTCTVSGFSLNNNAVGWVRQAPGKVPESLVGCSSDGTCYYNSALKSRLDITRDTSKNQISLSLSSVTTDDAAVYYCTRGHYSIYGYDYLGTIDYWGPGLLVTVSSEGKSSGASGESKVDDQAVLTQPSSVSGSLGQRVSITCSGSSSNVGGGNSVGWYQHLPGSGLKTIIYDTNSRPSGVPDRFSGSRSGNTATLTINSLQAEDEGDYYCVTGDSTTHDDLVGSGTRLTVLG
modifications: S1D12 amino acid sequence
Tmax (time of peak plasma concentration) [1]: 24 h | t1/2 (elimination half-life from plasma) ([1]; non-compartmental analysis): 256.2 h | Cmax ([1]; read-out: Cmax (peak plasma concentration)): 1460 nM | increase in plasma tau vs vehicle, NT1 assay (plasma tau): four-fold increase | plasma tau, NT1 assay (BT2 capture with Tau12 detection) (plasma tau; S1D12 mAb 30 mg/kg weekly for 6 weeks): 3.2 ± 0.42 pg/mL | increase in plasma tau vs vehicle, BT2-HT7 (plasma tau; did not reach statistical significance): two-fold increase | ThS fluorescence signal at 483 nm (dGAE): this signal was abolished; also recorded: abolished when s1D12 is included in the assembly mixture

B2: S1G2: anti-tau clone, SEQ ID NO: 81 (protein)
scFv: QVQLQESGPSLVKPSQTLSLTCTVSGFSLTSNSVGWVRQAPGKAPEWVAGIDTDGEEGYNPALNSRLSITRDTSKSQVSLSLSSVTSEDTAVYYCGRSYRADGLAYGYVQAIDYWGPGLLVTVSSEGKSSGASGESKVDDQAVVTQPSSVSGSLGQRVSITCSGSFIGISSVGWFQQLPGSGLRTIIVASDGRPSGVPDRFSMSKSGNTATLTISSLQAEDEADYFCGSSDRTPYTGVFGSGTRLTVLG
modifications: S1G2 amino acid sequence
LoD (dGAE aggregates; S1D12 mAb capture, untreated dGAE agg.): 250 ng/mL | LoD (dGAE aggregates; direct immobilisation of dGAE aggregates, +SDS Triton): 16 ng/mL | tau detection in mouse brain homogenate [2]: tau protein was detected in 50 μg of total brain protein in all four different sample types
